{"source": "patent US20240343823A1", "about": "(Ablynx, published 2024)", "key": {"[1]": {"biological_target": "T1, recombinant human Glypican-3 (R&D Systems, cat nr. 2119-GP) (human, UniProt P51654 25-559)", "T1 construct": "Bought protein; also called human GPC3; hGPC3", "assay": "SPR ProteOn XPR36, GPC3 captured on anti-His antibody, 1:1 model", "protocol": "Recombinant GPC3 proteins were captured on a GLC Sensor Chip (Biorad) immobilized with THE anti-His antibody (Genscript, cat no ABIN387699) via amine coupling, using EDC and NHS chemistry (running buffer: HBS-EP+, pH7.4). Purified ISVDs were injected for 2 minutes (flow rate 45 μL/min) at different concentrations (between 0.3 nM and 1000 nM) and dissociation was followed for 900 s. Regeneration was performed by injecting 10 mM Glycine-HCl (pH 1.5) for 1 minute (flow rate 45 μL/min). Data was double referenced by subtracting a reference ligand lane and a blank buffer injection. Processed sensorgrams were analyzed based on the 1:1 interaction model (Langmuir binding model) using ProteOn Manager 3.1.0 (Version 3.1.0.6) software."}, "[2]": {"biological_target": "T2, Recombinant human GPC4/hFc (R&D Systems, cat no 9195-GP) (human, UniProt O75487 19-529, limits assumed)", "T2 construct": "Bought; not shown: captured with anti-human IgG1", "T2 sequence (looked up)": "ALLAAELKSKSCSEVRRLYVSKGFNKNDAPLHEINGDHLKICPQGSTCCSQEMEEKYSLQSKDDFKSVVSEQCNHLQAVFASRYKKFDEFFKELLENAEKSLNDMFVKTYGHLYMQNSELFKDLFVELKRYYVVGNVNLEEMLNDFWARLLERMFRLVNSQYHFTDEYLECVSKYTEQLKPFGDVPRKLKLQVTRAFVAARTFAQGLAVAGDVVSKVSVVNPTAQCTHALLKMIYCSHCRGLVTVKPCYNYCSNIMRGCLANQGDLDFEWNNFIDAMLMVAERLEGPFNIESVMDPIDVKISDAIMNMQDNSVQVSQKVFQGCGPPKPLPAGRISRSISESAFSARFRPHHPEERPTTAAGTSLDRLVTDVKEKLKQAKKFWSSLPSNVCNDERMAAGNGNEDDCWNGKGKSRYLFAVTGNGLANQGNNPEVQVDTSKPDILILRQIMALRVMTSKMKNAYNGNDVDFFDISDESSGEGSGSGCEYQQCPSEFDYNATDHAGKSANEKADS", "assay": "SPR ProteOn XPR36, GPC4/hFc captured on anti-human IgG1", "text": "Data was double referenced by subtracting a reference ligand lane and a blank buffer injection."}, "[3]": {"biological_target": "T3, TCRab on primary cyno T cells (cynomolgus)", "T3 construct": "whole, on cells; also called Primary cy T cells; cyno TCR", "assay": "competition flow cytometry on cyno T cells, competitor T017000623 at EC30 (5E-08 M)", "protocol": "T cells (human T cells obtained as described in Example 3 and cyno T cells purchased from LPT laboratory, Germany) were thawed and counted on the day of the assay and diluted to a concentration of 1E+06 cells/mL, before adding 75 μL to the wells of a V-bottom 96-well plate (Greiner, cat no 651180). Cells were washed once with cold FACS buffer, before adding 25 μL Nb and 25 μL competitor to the wells. […] Cells were resuspended and plates were incubated at 4° C. for 90 minutes, after which plates were washed twice in cold FACS buffer. Cells were resuspended in 50 μl 1/1000 diluted Monoclonal ANTI-FLAG® M2 (Sigma Aldrich, cat no F1804) in FACS buffer and incubated at 4° C. for 30 minutes. Plates were washed twice in cold FACS buffer. […] Plates were washed twice in cold FACS buffer. Cells were resuspended in 55 μL 1/1000 diluted Propidium Iodide (Sigma-Aldrich, cat no P4170) in FACS buffer before acquiring data on the MACSQuant X (Miltenyi biotec)."}, "[4]": {"biological_target": "T4, human GPC3 expressed on CHO Flp-In cells (human, UniProt P51654 25-554)", "T4 construct": "On cells; Q25-R358, S359-H580; also called hGPC3 CHO; CHO huGPC3", "assay": "flow cytometry on CHO Flp-In human GPC3 cells"}, "[5]": {"biological_target": "T5, human serum albumin (Sigma cat no A8763) (human, UniProt P02768 25-609)", "T5 construct": "also called HSA", "assay": "SPR ProteOn XPR36, serum albumin immobilized by amine coupling, 1:1 model", "protocol": "(§1) Serum albumin proteins were immobilized on a GLC Sensor Chip (Biorad) via amine coupling, using EDC and NHS chemistry (running buffer: HBS-EP+, pH 7.4). Purified ISVDs were injected for 2 minutes (flow rate 45 μL/min) at different concentrations (between 0.24 nM and 500 nM) and dissociation was followed for 900 s. Regeneration was performed by injecting 10 mM Glycine-HCl (pH 1.5) for 47 seconds (flow rate 100 μL/min). Data was double referenced by subtracting a reference ligand lane and a blank buffer injection. Processed sensorgrams were analyzed based on the 1:1 interaction model (Langmuir binding model) using ProteOn Manager 3.1.0 (Version 3.1.0.6) software."}, "[6]": {"biological_target": "mouse serum albumin (DivBioScience cat no IMSA) (mouse, UniProt P07724 25-608)", "sequence (P07724 25-608 limits assumed)": "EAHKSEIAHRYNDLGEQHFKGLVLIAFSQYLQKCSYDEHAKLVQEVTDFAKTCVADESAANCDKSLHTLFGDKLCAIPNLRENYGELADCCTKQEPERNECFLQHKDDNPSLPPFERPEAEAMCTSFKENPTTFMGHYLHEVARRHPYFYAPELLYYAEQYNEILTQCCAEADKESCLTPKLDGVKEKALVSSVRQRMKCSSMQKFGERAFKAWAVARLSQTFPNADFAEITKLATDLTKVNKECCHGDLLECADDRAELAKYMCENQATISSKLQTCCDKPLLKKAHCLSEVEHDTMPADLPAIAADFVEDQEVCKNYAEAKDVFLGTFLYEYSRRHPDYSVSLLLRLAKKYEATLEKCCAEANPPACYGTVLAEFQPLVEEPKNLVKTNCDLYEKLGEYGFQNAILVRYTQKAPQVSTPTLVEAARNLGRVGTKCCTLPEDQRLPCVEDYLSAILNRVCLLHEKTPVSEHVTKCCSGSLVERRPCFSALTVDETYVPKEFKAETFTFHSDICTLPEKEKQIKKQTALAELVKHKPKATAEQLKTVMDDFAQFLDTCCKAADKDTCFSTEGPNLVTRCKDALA", "assay": "SPR ProteOn XPR36, serum albumin immobilized by amine coupling, 1:1 model", "protocol": "as §1"}, "[7]": {"biological_target": "T6, cyno serum albumin (in house produced from animal tissue) (cynomolgus)", "T6 construct": "also called cynomolgus serum albumin", "T6 sequence (A2V9Z4 25-608)": "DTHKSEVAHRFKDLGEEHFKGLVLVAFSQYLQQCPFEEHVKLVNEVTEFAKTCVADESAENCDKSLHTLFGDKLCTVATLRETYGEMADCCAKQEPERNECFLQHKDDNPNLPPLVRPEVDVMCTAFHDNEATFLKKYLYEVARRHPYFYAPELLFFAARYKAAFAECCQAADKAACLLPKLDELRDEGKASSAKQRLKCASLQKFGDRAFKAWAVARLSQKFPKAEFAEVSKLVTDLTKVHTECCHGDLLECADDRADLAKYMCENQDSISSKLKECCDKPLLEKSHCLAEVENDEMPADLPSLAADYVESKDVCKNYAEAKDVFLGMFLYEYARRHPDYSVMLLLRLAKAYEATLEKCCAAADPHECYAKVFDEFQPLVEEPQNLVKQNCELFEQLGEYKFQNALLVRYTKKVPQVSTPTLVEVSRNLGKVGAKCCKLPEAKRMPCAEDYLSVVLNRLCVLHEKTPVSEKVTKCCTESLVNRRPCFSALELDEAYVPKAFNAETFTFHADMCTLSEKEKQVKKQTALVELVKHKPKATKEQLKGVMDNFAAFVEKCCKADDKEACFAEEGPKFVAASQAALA", "assay": "SPR ProteOn XPR36, serum albumin immobilized by amine coupling, 1:1 model", "protocol": "as §1"}}}
{"binder": "A022600424 (other, Trispecific tetravalent ISVD (VHH) T-cell engager: anti-TCR, two anti-GPC3 (biparatopic), anti-albumin; also called TCE01-5GS-A022600351-9GS-A022600314-9GS-ALB23002-A) DVQLVESGGGVVQPGGSLRLSCVASGYVHKINFYGWYRQAPGKEREKVAHISIGDQTDYADSAKGRFTISRDESKNTVYLQMNSLRPEDTAAYYCRALSRIWPYDYWGQGTLVTVSSGGGGSEVQLVESGGGVVQPGGSLRLSCAASGFTFSSFAMTWVRRPPGKGLEWVATITNKGVTSYADSVKGRFTISRDNAKNTLYLQMNSLRPEDTALYICANARRTGPRAPTDIGSYRGQGTLVTVSSGGGGSGGGSEVQLVESGGGVVQPGGSLRLSCAASGSIFRSVFSSSTMEWYRQAPGKKRELVARIAPGEGTYYGALYADSVKGRFTISRDNAKNTVYLQMNSLRPEDTALYYCASGVAWGQGTLVTVSSGGGGSGGGSEVQLVESGGGVVQPGGSLRLSCAASGFTFRSFGMSWVRQAPGKGPEWVSSISGSGSDTLYADSVKGRFTISRDNSKNTLYLQMNSLRPEDTALYYCTIGGSLSRSSQGTLVTVSSA", "values": [{"measurement": "Kd", "setting": "[1]", "result": "< 0.0056", "unit": "nM"}, {"measurement": "binding result", "setting": "[2]", "result": "no binding (tested: between 4 nM and 1000 nM)"}, {"measurement": "IC50", "setting": "[3]", "result": 250, "unit": "nM"}, {"measurement": "EC50", "setting": "[4]", "result": 1.82, "unit": "nM"}, {"measurement": "Kd", "setting": "[5]", "result": 0.83, "unit": "nM"}, {"measurement": "Kd", "setting": "[6]", "result": 6.9, "unit": "nM"}, {"measurement": "Kd", "setting": "[7]", "result": 0.33, "unit": "nM"}]}
